Experimental data from the supplement of paper PMC10598134.
± gives the standard deviation.

Assay: collision cross section of modified peptide (TIMS, N2, iRT-aligned); higher = larger / more extended gas-phase ion
Method in brief: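 Values are averages of 1–3 technical replicates of the most abundant feature for each charge state. Collision cross section was obtained from the Mason-Schamp equation after 1/K0 calibration with three reference ions and run-wise alignment to the median iRT peptide deviation. Synthetic peptide pools (iRT standard spiked 1:40) were separated on a 120-min nanoflow C18 gradient at 60 °C, analysed on a timsTOF Pro/HT (dda-PASEF, nitrogen, ~2.4 mbar) and identified with MaxQuant.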

[1] = charge state: 2, modification: Phospho (Y)
[2] = charge state: 2, modification: Methyl (K)
[3] = charge state: 3, modification: Methyl (K)
[4] = charge state: 2, modification: Citrullination (R)
[5] = charge state: 3, modification: Dimethyl (K)
[6] = charge state: 2, modification: Trimethyl (K)
[7] = charge state: 3, modification: Trimethyl (K)
[8] = charge state: 2, modification: Glutarylation
[9] = charge state: 3, modification: Glutarylation
[10] = charge state: 2, modification: Succinyl
[11] = charge state: 2, modification: Acetyl (K)
[12] = charge state: 2, modification: Nitro (Y)
[13] = charge state: 2, modification: Formyl
[14] = charge state: 3, modification: Formyl
[15] = charge state: 2, modification: Dimethyl (K)
[16] = charge state: 2, modification: GlyGly (K)
[17] = charge state: 3, modification: GlyGly (K)
[18] = charge state: 2, modification: Biotin
[19] = charge state: 2, modification: Propionyl
[20] = charge state: 2, modification: HexNAc (ST)
[21] = charge state: 3, modification: HexNAc (ST)
[22] = charge state: 2, modification: hydroxyisobutyryl
[23] = charge state: 3, modification: hydroxyisobutyryl
[24] = charge state: 3, modification: Citrullination (R)
[25] = charge state: 2, modification: Malonyl

AEGYEVAHGGR [_AEGY(Phospho (Y))EVAHGGR_]
collision cross section [1]: 370.65 ± 0.064 Å²
collision cross section (charge state: 3, modification: Phospho (Y)): 440.52 Å²

LQEKVESAQSEQK [_LQEK(Methyl (K))VESAQSEQK_]
collision cross section [2]: 410.87 ± 2 Å²
collision cross section [3]: 480.74 ± 20 Å²

CYYGSDTAGR [_CY(Phospho (Y))YGSDTAGR_]
collision cross section [1]: 358.39 Å²

ANAIGRGAK [_ANAIGR(Citrullination (R))GAK_]
collision cross section [4]: 313.03 ± 0.86 Å²

ITLSKHQNVQLPR [_ITLSK(Dimethyl (K))HQNVQLPR_]
collision cross section [5]: 489.75 ± 1.2 Å²

IVSGKDYNVTANSK [_IVSGK(Trimethyl (K))DYNVTANSK_]
collision cross section [6]: 419.62 ± 1.6 Å²
collision cross section [7]: 475.29 ± 2.4 Å²

LGNDFHTNKR [_LGNDFHTNK(Gluratylation)R_]
collision cross section [8]: 382 ± 0.1 Å²
collision cross section [9]: 434.71 ± 2.9 Å²

TLQKQSVVYGGK [_TLQK(Succinyl)QSVVYGGK_]
collision cross section [10]: 397.13 ± 0.77 Å²

PSVSTKLISK [_PSVSTK(Acetyl (K))LISK_]
collision cross section [11]: 351 ± 0.96 Å²

FDDTNPEKEEAK [_FDDTNPEK(Gluratylation)EEAK_]
collision cross section [8]: 403.46 ± 1.1 Å²
collision cross section [9]: 440.63 Å²

TTGFYSGFSEVAEKR [_TTGFYSGFSEVAEK(Gluratylation)R_]
collision cross section [8]: 443.45 ± 0.95 Å²
collision cross section [9]: 517.64 Å²

DLATVYVDVLK [_DLATVY(Nitro (Y))VDVLK_]
collision cross section [12]: 387.27 ± 0.74 Å²

IINEPTAAAIAYGLDKK [_IINEPTAAAIAYGLDK(Formyl)K_]
collision cross section [13]: 458.24 ± 1.2 Å²
collision cross section [14]: 548.84 ± 1.7 Å²

GTITVSAQELKDNR [_GTITVSAQELK(Dimethyl (K))DNR_]
collision cross section [15]: 437.65 ± 1.3 Å²
collision cross section [5]: 475.47 ± 2.4 Å²

LTEKELAEAASK [_LTEK(Methyl (K))ELAEAASK_]
collision cross section [2]: 392.99 ± 1 Å²
collision cross section [3]: 445.12 ± 4.9 Å²

VLDSGAPIKIPVGPETLGR [_VLDSGAPIK(GlyGly (K))IPVGPETLGR_]
collision cross section [16]: 467.11 ± 1.6 Å²
collision cross section [17]: 510.19 ± 1.1 Å²

SGGRGVSVSSAR [_SGGR(Methyl (R))GVSVSSAR_]
collision cross section (charge state: 2, modification: Methyl (R)): 362.59 ± 13 Å²
collision cross section (charge state: 3, modification: Methyl (R)): 443.44 ± 0.81 Å²

PPGFSPFR [_PP(Hydroxyproline)GFSPFR_]
collision cross section (charge state: 2, modification: Hydroxyproline): 331.47 ± 1.3 Å²

YADLTEDQLPSCESLK [_Y(Phospho (Y))ADLTEDQLPSCESLK_]
collision cross section [1]: 458.87 Å²

LEQVEKELLR [_LEQVEK(Biotin)ELLR_]
collision cross section [18]: 410.78 Å²

DKALPLEAEVAPVK [_DK(GlyGly (K))ALPLEAEVAPVK_]
collision cross section [16]: 422.58 ± 0.97 Å²
collision cross section [17]: 511.69 ± 1.3 Å²

GAEKTEVAEPR [_GAEK(Acetyl (K))TEVAEPR_]
collision cross section [11]: 370.22 ± 7.6 Å²

ALLQAKASGK [_ALLQAK(Propionyl)ASGK_]
collision cross section [19]: 350.75 ± 0.49 Å²

LQLEIDQKK [_LQLEIDQK(Acetyl (K))K_]
collision cross section [11]: 364.82 ± 0.76 Å²

DYGNSPLHR [_DY(Nitro (Y))GNSPLHR_]
collision cross section [12]: 341.59 ± 0.55 Å²
collision cross section (charge state: 3, modification: Nitro (Y)): 437.8 ± 1.2 Å²

LDEKENLSAK [_LDEK(GlyGly (K))ENLSAK_]
collision cross section [16]: 379.07 ± 1.5 Å²
collision cross section [17]: 437.31 ± 1.9 Å²

GEKGLPGLAGDHGEFGEK [_GEKGLP(Hydroxyproline)GLAGDHGEFGEK_]
collision cross section (charge state: 3, modification: Hydroxyproline): 558.56 ± 0.81 Å²

SLGEPAAGEGSAKR [_SLGEPAAGEGSAK(Methyl (K))R_]
collision cross section [2]: 408.5 ± 0.81 Å²
collision cross section [3]: 480.43 ± 2.6 Å²

VLSIGDGIAR [_VLS(HexNAc (ST))IGDGIAR_]
collision cross section [20]: 372.66 ± 0.12 Å²

TTGFYSGFSEVAEKR [_TTGFYSGFSEVAEK(Succinyl)R_]
collision cross section [10]: 441.9 ± 0.5 Å²
collision cross section (charge state: 3, modification: Succinyl): 512.39 ± 1.6 Å²

SLEEEGAAHSGKR [_SLEEEGAAHSGK(Biotin)R_]
collision cross section [18]: 428.85 Å²
collision cross section (charge state: 3, modification: Biotin): 493.19 Å²

GQDSTIAASEQQVAAR [_GQDS(HexNAc (ST))TIAASEQQVAAR_]
collision cross section [20]: 438.46 ± 0.56 Å²
collision cross section [21]: 532.78 ± 0.19 Å²

SLIGKVDGTSHVTGK [_SLIGKVDGTSHVT(HexNAc (ST))GK_]
collision cross section [21]: 501.68 ± 0.18 Å²

TTEETSKPK [_TTEETSK(Formyl)PK_]
collision cross section [13]: 332.42 ± 4.9 Å²

VLTANSNPSSPSAAKR [_VLTANSNPSSPSAAK(hydroxyisobutyryl)R_]
collision cross section [22]: 434.9 ± 0.8 Å²
collision cross section [23]: 533.81 ± 2 Å²

VTPHPSPRGSPLPTPK [_VTPHPSPR(Citrullination (R))GSPLPTPK_]
collision cross section [4]: 409.96 ± 0.55 Å²
collision cross section [24]: 504.78 ± 11 Å²

SNEEGSEEKGPEVR [_SNEEGSEEK(Malonyl)GPEVR_]
collision cross section [25]: 402.09 ± 1.6 Å²

LSQEDPDYGIR [_LS(HexNAc (ST))QEDPDYGIR_]
collision cross section [20]: 396.72 ± 0.76 Å²

GGPGSTLSFVGKR [_GGPGSTLSFVGK(Acetyl (K))R_]
collision cross section [11]: 381.14 ± 0.21 Å²
collision cross section (charge state: 3, modification: Acetyl (K)): 429.09 ± 1.1 Å²

LDHLAEKFR [_LDHLAEK(GlyGly (K))FR_]
collision cross section [16]: 374.05 ± 1.1 Å²
collision cross section [17]: 449.01 ± 1.6 Å²

LGVATVAKGVCGACK [_LGVATVAK(Gluratylation)GVCGACK_]
collision cross section [8]: 422.53 Å²
collision cross section [9]: 500.02 Å²

IHVQSSSDSSDEPAEKR [_IHVQSSSDSSDEPAEK(Formyl)R_]
collision cross section [13]: 447.23 Å²
collision cross section [14]: 491.34 ± 2.1 Å²

SFDEVEGVFGRGGGR [_SFDEVEGVFGR(Citrullination (R))GGGR_]
collision cross section [4]: 404.76 ± 0.98 Å²
collision cross section [24]: 503.12 Å²

LLEQKTQESQK [_LLEQK(Formyl)TQESQK_]
collision cross section [13]: 386.78 ± 0.55 Å²

PSVSTKLISK [_PSVSTK(Trimethyl (K))LISK_]
collision cross section [6]: 364.51 ± 0.61 Å²
collision cross section [7]: 427.1 ± 2.4 Å²

IISSIEQKEENK [_IISSIEQK(Propionyl)EENK_]
collision cross section [19]: 403.07 ± 0.65 Å²

DTPTSAGPNSFNKGK [_DTPTSAGPNSFNK(Succinyl)GK_]
collision cross section [10]: 411.39 ± 1.1 Å²

DDSFLGKLGGTLAR [_DDSFLGK(hydroxyisobutyryl)LGGTLAR_]
collision cross section [22]: 418.74 ± 0.55 Å²
collision cross section [23]: 495.38 ± 2.8 Å²

GEVGAGAGPGAQAGPSAKR [_GEVGAGAGPGAQAGPSAK(hydroxyisobutyryl)R_]
collision cross section [22]: 426.95 ± 0.56 Å²
collision cross section [23]: 486.12 ± 1.9 Å²

GAEKTEVAEPR [_GAEK(Malonyl)TEVAEPR_]
collision cross section [25]: 372.62 ± 0.63 Å²

IPQEKCILQTDVK [_IPQEK(hydroxyisobutyryl)CILQTDVK_]
collision cross section [22]: 438.91 ± 0.79 Å²

AGPNASIISLKSDK [_AGPNASIISLK(Crotonyl)SDK_]
collision cross section (charge state: 2, modification: Crotonyl): 412.97 ± 0.55 Å²

TLQKQSVVYGGK [_TLQK(Dimethyl (K))QSVVYGGK_]
collision cross section [15]: 397.97 ± 0.88 Å²
collision cross section [5]: 459.07 ± 1.6 Å²

DVNAAIAAIKTK [_DVNAAIAAIK(Formyl)TK_]
collision cross section [13]: 377.34 ± 15 Å²

YVGESEANIR [_Y(Nitro (Y))VGESEANIR_]
collision cross section [12]: 357.77 ± 0.55 Å²
